Experimental data as given in patent US20080194482A1, “Selective Apac2 Receptor Peptide Agonists” (priority 2005, published 2008).
Read-outs that look alike come from different tables or passages of the source. Square brackets hold non-standard residues; d marks the D form. Ends that are not written are not given here. Peptide text beside a SMILES is read from it. * marks the point of attachment. hArg = N=C(N)NCCCC[C@H](N)C(=O)O; Orn = NCCC[C@H](N)C(=O)O; Hexanoyl = CCCCCC(=O)*; Aib = CC(C)(N)C(=O)O

Experiments:
human VPAC1 = target: T1, human VPAC1 (Homo sapiens, UniProt P32241); experiment: Filter binding assay, 125I-labeled VIP tracer, VPAC1 membranes; settings: read-out: Human VPAC1 Receptor Binding (IC50; nM)
T1 construct: expressed in transfected cells
T1 sequence (P32241 31-457): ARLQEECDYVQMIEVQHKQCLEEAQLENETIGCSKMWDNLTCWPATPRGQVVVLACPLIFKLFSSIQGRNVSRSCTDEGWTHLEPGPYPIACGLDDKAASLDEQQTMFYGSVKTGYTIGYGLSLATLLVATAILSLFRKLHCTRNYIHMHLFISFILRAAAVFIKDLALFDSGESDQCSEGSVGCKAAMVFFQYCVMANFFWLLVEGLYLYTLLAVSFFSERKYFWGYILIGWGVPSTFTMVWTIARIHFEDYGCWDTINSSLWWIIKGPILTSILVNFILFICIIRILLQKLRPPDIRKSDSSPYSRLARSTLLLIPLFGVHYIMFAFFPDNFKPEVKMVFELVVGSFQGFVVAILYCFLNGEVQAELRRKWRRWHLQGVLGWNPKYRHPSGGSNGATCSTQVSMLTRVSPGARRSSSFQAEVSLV

human PAC1 = target: T2, human PAC1 (Homo sapiens, UniProt P41586); experiment: Filter binding assay, 125I-labeled PACAP-27 tracer, PAC1 membranes; settings: read-out: Human PAC1 Receptor Binding (IC50; nM)
T2 construct: expressed in transfected cells
T2 sequence (P41586 21-468): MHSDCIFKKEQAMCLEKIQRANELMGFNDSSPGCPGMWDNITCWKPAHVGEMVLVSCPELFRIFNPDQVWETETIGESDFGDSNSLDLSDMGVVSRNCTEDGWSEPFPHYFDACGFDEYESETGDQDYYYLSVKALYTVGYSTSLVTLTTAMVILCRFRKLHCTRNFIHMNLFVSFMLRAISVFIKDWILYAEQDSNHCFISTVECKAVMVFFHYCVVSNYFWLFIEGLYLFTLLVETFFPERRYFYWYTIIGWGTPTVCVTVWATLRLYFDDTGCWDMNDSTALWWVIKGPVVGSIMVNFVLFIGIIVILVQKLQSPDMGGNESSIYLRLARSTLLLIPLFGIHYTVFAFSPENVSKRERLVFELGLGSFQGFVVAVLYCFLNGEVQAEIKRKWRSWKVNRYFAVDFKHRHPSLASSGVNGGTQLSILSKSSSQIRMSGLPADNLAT

[1] = Rat serum stability (activity remaining, CHO-VPAC2 DiscoveRx read-out); format: in vitro ADME
Procedure: The rat serum is stored at 4° C. until use and is used within two weeks. […] The aliquot is stored with aprotinin at 4° C. The aliquot is stored without aprotinin at 37° C. The aliquots are incubated overnight. […] The plate(s) are washed with cells twice in incubation buffer. The plates are allowed to hold 50 μL incubation media per well for 15 minutes. 50 μL solution per well is transferred to the cells from the plate prepared with 11 serial 5× dilutions of peptide for the 4° C. and 37° C. aliquot for each peptide studied, using the maximal concentrations that are indicated by the primary screen, in duplicate. This step dilutes the peptide concentration by a factor of two. The cells are incubated at room temperature for 30 minutes. […] The cells are incubated on the shaker (300 rpm) for 1 hour. Normal procedure with the DiscoveRx kit is followed. cAMP standards are included in column 12. EC50 values are determined from the cAMP assay data.

rat VPAC2 receptor = target: T3, rat VPAC2 receptor (rat, UniProt P35000 23-437); experiment: cell-based or functional assay
T3 sequence (looked up): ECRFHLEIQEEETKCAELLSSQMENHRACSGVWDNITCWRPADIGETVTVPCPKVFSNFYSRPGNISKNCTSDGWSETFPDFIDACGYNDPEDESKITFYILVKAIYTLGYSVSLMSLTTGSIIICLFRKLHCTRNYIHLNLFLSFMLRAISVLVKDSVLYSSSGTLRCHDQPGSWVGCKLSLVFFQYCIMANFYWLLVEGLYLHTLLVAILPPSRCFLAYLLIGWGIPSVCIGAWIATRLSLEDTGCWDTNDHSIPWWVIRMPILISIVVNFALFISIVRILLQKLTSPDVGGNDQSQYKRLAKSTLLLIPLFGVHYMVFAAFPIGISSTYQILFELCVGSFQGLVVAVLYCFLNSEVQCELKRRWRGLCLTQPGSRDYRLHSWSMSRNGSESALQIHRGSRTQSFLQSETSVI

rat VPAC1 receptor = target: T4, rat VPAC1 receptor (rat, UniProt P30083 31-459); experiment: cell-based or functional assay
T4 sequence (looked up): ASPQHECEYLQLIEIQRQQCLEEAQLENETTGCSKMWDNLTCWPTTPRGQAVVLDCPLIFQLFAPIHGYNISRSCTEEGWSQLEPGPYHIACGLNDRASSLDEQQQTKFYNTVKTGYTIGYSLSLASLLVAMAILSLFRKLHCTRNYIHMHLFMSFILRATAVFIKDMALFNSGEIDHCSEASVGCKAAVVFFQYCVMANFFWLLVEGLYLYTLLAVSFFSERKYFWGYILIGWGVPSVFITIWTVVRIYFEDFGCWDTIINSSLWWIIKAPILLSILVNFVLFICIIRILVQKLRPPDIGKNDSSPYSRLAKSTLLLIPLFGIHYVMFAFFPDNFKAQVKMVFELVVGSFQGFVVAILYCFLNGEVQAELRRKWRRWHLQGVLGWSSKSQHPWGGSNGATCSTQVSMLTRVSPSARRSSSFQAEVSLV

human VPAC2 receptor [2] = target: T5, human VPAC2 receptor (human, UniProt P41587 24-438); experiment: filter binding, human VPAC2 membranes, competition with 125I-VIP;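 note: assay plate incubated 1 h with shaking, then filtered, with filter-retained counts measured after adding scintillant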
T5 construct: whole, on cells; Stably expressed in a CHO-S cell line
T5 sequence (looked up): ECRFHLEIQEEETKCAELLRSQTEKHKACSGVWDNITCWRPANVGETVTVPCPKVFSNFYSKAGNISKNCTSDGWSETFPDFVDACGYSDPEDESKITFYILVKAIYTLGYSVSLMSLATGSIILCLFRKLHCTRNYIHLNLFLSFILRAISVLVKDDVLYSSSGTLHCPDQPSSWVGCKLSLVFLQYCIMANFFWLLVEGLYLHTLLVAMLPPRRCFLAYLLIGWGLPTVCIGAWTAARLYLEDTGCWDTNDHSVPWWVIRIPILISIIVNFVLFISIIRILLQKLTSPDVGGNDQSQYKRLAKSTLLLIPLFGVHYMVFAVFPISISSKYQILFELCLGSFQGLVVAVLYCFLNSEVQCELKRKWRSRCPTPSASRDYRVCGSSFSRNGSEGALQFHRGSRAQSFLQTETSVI
Procedure: The filled plate is incubated for 1 hour with shaking.
The transfer from assay plate to filter plate is conducted. The blocking buffer is aspirated by vacuum filtration and washed two times with flush buffer. 90 μL is transferred from the assay plate to the filter plate. The 90 μL transferred from assay plate is aspirated and washed three times with 200 μL flush buffer. The plastic support is removed. It is dried for 1 hour at 60° C. 30 μL Microscint is added. The count is performed.

human VPAC2 receptor [3] = target: T5, human VPAC2 receptor; experiment: cell-based or functional assay

| Molecule | IC50 (human VPAC1) [nM] | IC50 (human PAC1) [nM] | Rat Serum Stability (estimated purity in % after overnight incub.) [1] [%] | Rat Serum Stability (estimated purity in % after overnight incub.) ([1]; 10 μM peptide in rat serum, overnight at 37° C. vs 4° C. with aprotinin, estimated by EC50, 4C/EC50, 37C) [%] | Rat VPAC2 Receptor: DiscoveRx (EC50; nM), cAMP generation (rat VPAC2 receptor) [nM] | Rat VPAC1 Receptor: DiscoveRx (EC50; nM), cAMP generation (rat VPAC1 receptor) [nM] | IC50 (human VPAC2 receptor [2]) [nM] | Human VPAC2 Receptor: Alpha Screen (EC50; nM), cAMP generation (human VPAC2 receptor [3]) [nM] |
| --- | --- | --- | --- | --- | --- | --- | --- | --- |
| CCCCCC(=O)N[C@@H](Cc1c[nH]cn1)C(=O)N[C@@H](CO)C(=O)N[C@@H](CC(=O)O)C(=O)N[C@@H](C)C(=O)N[C@H](C(=O)N[C@@H](Cc1ccccc1)C(=O)N[C@H](C(=O)N[C@@H](CC(=O)O)C(=O)N[C@@H](CC(N)=O)C(=O)N[C@@H](Cc1ccc(O)cc1)C(=O)N[C@H](C(=O)N[C@@H](CCC(N)=O)C(=O)N[C@@H](CC(C)C)C(=O)N[C@@H](CCCNC(=N)N)C(=O)NC(C)(C)C(=O)N[C@@H](CCC(N)=O)C(=O)N[C@H](C(=O)N[C@@H](C)C(=O)N[C@@H](C)C(=O)NC(C)(C)C(=O)N[C@@H](CCCCN)C(=O)N[C@@H](Cc1ccc(O)cc1)C(=O)N[C@@H](CC(C)C)C(=O)N[C@@H](CCC(N)=O)C(=O)N[C@@H](CO)C(=O)N[C@H](C(=O)N[C@@H](CCCN)C(=O)N[C@@H](CC(N)=O)C(=O)N[C@@H](CCCN)C(=O)NCC(=O)NCC(=O)N1CCC[C@H]1C(=O)N[C@@H](CO)C(=O)N[C@@H](CO)C(=O)NCC(=O)N[C@@H](C)C(=O)N1CCC[C@H]1C(=O)N1CCC[C@H]1C(=O)N1CCC[C@H]1C(=O)N[C@@H](CO)C(=O)O)[C@@H](C)CC)C(C)C)[C@@H](C)O)[C@@H](C)O)C(C)C [Agonist P368] (Hexanoyl-HSDAVFTDNYTQLR[Aib]QVAA[Aib]KYLQSI[Orn]N[Orn]GGPSSGAPPPS-OH; C-terminus assumed) | > 3000 | > 25000 | 99.82 | – | – | – | – | – |
| CCCCCC(=O)N[C@@H](Cc1c[nH]cn1)C(=O)N[C@@H](CO)C(=O)N[C@@H](CC(=O)O)C(=O)N[C@@H](C)C(=O)N[C@H](C(=O)N[C@@H](Cc1ccccc1)C(=O)N[C@H](C(=O)N[C@@H](CCC(=O)O)C(=O)N[C@@H](CCC(N)=O)C(=O)N[C@@H](Cc1ccc(OC)cc1)C(=O)N[C@H](C(=O)N[C@@H](CCCN)C(=O)N[C@@H](CC(C)C)C(=O)N[C@@H](CCCNC(=N)N)C(=O)NC(C)(C)C(=O)N[C@@H](CCC(N)=O)C(=O)N[C@@H](CC(C)C)C(=O)N[C@@H](C)C(=O)N[C@@H](C)C(=O)NC(C)(C)C(=O)N[C@@H](CCCN)C(=O)N[C@@H](Cc1ccc(OC)cc1)C(=O)N[C@@H](CC(C)C)C(=O)N[C@@H](CCC(N)=O)C(=O)N[C@@H](CO)C(=O)N[C@H](C(=O)N[C@@H](CCCN)C(=O)N[C@@H](CCCN)C(=O)NCC(=O)NCC(=O)N1CCC[C@H]1C(=O)N[C@@H](CO)C(=O)N[C@@H](CO)C(=O)NCC(=O)N[C@@H](C)C(=O)N1CCC[C@H]1C(=O)N1CCC[C@H]1C(=O)N1CCC[C@H]1C(=O)N[C@@H](CO)C(=O)O)[C@@H](C)CC)[C@@H](C)O)[C@@H](C)O)C(C)C [Agonist P418] (Hexanoyl-HSDAVFTEQY(Me)T[Orn]LR[Aib]QLAA[Aib][Orn]Y(Me)LQSI[Orn][Orn]GGPSSGAPPPS-OH; C-terminus assumed) | > 3000 | > 25000 | 99.96 | – | – | – | – | – |
| CCCCCC(=O)N[C@@H](Cc1c[nH]cn1)C(=O)N[C@@H](CO)C(=O)N[C@@H](CC(=O)O)C(=O)N[C@@H](C)C(=O)N[C@H](C(=O)N[C@@H](Cc1ccccc1)C(=O)N[C@H](C(=O)N[C@@H](CC(=O)O)C(=O)N[C@@H](CC(N)=O)C(=O)N[C@@H](Cc1ccc(OC)cc1)C(=O)N[C@H](C(=O)N[C@@H](CCCNC(=N)N)C(=O)N[C@@H](CC(C)C)C(=O)N[C@@H](CCCNC(=N)N)C(=O)NC(C)(C)C(=O)N[C@@H](CCC(N)=O)C(=O)N[C@H](C(=O)N[C@@H](C)C(=O)N[C@@H](C)C(=O)NC(C)(C)C(=O)N[C@@H](CCCCN)C(=O)N[C@@H](Cc1ccc(O)cc1)C(=O)N[C@@H](CC(C)C)C(=O)N[C@@H](CCC(N)=O)C(=O)N[C@@H](CO)C(=O)N[C@H](C(=O)N[C@@H](CCCCN)C(=O)N[C@@H](CC(N)=O)C(=O)N[C@@H](CCCCN)C(=O)N[C@@H](CCCNC(=N)N)C(=O)N[C@@H](Cc1ccc(O)cc1)C(=O)NCC(=O)NCC(=O)N1CCC[C@H]1C(=O)N[C@@H](CO)C(=O)N[C@@H](CO)C(=O)NCC(=O)N[C@@H](C)C(=O)N1CCC[C@H]1C(=O)N1CCC[C@H]1C(=O)N1CCC[C@H]1C(=O)N[C@@H](CO)C(=O)O)[C@@H](C)CC)C(C)C)[C@@H](C)O)[C@@H](C)O)C(C)C [Agonist P358] | – | – | 13.43 | – | – | – | – | – |
| Hexanoyl-HSDAVFTDNYT[hArg]LR[Aib]QVAA[Aib]KYLQSIKNKRYGGPSSGAPPPS [Agonist P343] | > 3000 | > 25000 | – | 34.46 | – | – | – | – |
| HSDAVFTDQYTXLRXQLAAXXYLQSIXXGGPSSGAPPPS (N-terminal hexanoyl (C6); Tyr(OMe) at 10; Orn at 12, 21, 27 and 28; Aib at 15 and 20) [VPAC2 receptor peptide agonist P394] | – | – | – | – | 0.03 | 0.48 | 0.41 | 0.11 |
| Hexanoyl-HSDAVFTDNYTFLR[Aib]QVAA[Aib]KYLQSI[Orn]N[Orn]GGPSSGAPPPS [VPAC2 receptor peptide agonist P369] | – | – | – | – | 8.09 | 130 | 37.3 | 10.5 |
| Hexanoyl-HSDAVFTDNYTRLLAKLALQKYLQSI[Orn]N[Orn]GGPSSGAPPPS [VPAC2 receptor peptide agonist P370] | – | – | – | – | 0.05 | 0.05 | 0.8 | 0.23 |
